Experiments:
[1] = system: AncSZ; test: phosphorylation enrichment, bacterial display (enrichment ratio); higher = better substrate or ligand; peptides without Tyr show the background
[2] = molecular target: EPHB1 (UniProt P54762); test: as above
[3] = molecular target: EPHB2 (UniProt P29323); test: as above
[4] = molecular target: FGFR1 (UniProt P11362); test: as above
[5] = molecular target: FGFR3 (UniProt P22607); test: as above
[6] = system: Fer (mouse); test: as above
[7] = molecular target: Fes (UniProt P07332); test: as above
Fes, sequence (P07332 whole entry, looked up): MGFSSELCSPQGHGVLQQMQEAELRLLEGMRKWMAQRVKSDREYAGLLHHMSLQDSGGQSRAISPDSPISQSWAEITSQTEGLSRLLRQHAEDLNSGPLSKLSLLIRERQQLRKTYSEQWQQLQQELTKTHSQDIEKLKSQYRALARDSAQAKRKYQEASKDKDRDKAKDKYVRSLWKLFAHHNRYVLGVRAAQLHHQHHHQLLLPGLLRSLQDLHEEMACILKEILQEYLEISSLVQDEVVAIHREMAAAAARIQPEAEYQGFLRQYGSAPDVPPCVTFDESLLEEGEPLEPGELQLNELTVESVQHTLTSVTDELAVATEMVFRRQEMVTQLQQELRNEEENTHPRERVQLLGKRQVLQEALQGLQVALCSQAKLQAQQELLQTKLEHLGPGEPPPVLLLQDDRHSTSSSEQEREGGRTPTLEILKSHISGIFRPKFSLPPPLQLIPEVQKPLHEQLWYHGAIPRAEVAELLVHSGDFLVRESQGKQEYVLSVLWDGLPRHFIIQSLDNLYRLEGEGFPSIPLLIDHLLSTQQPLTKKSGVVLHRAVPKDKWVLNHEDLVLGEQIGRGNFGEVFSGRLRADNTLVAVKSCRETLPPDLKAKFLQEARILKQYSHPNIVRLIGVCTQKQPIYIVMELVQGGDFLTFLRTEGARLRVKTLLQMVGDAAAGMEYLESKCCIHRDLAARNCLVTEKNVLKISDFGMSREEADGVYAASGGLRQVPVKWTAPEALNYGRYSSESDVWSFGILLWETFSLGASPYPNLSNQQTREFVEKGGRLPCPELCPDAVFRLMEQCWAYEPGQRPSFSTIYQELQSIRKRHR

[8] = molecular target: Fyn (UniProt P06241); test: as above
Fyn, sequence (P06241 whole entry, looked up): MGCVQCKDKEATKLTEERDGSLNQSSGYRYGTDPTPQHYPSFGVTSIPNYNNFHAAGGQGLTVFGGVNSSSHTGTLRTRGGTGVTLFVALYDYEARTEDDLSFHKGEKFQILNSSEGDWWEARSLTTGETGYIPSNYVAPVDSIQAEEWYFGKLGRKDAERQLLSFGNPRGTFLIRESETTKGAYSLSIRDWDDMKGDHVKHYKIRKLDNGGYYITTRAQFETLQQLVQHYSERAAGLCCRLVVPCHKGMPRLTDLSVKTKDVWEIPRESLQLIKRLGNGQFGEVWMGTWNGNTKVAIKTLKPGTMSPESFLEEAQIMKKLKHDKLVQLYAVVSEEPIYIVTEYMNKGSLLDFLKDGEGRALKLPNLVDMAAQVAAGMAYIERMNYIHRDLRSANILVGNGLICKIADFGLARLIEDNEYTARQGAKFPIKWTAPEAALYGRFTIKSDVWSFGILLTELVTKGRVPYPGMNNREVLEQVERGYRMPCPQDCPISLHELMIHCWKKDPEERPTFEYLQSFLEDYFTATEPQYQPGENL

[9] = molecular target: Hck (UniProt P08631); test: as above
Hck, sequence (P08631 whole entry, looked up): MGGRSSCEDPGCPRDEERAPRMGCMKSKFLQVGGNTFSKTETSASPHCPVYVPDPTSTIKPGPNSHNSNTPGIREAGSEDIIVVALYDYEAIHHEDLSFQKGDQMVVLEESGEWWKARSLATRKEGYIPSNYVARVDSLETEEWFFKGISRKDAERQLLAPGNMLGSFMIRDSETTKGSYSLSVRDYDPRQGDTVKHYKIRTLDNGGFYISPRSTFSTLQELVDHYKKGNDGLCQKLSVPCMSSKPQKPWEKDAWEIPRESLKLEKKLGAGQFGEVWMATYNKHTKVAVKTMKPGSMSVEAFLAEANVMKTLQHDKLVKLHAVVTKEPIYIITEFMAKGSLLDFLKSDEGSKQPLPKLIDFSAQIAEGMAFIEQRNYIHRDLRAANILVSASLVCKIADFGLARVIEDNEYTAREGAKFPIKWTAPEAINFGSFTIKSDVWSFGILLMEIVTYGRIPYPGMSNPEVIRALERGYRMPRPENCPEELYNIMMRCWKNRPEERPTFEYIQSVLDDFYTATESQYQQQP

[10] = molecular target: Jak2 (UniProt O60674); test: as above
[11] = molecular target: MERTK (UniProt Q12866); test: as above
MERTK, sequence (Q12866 whole entry, looked up): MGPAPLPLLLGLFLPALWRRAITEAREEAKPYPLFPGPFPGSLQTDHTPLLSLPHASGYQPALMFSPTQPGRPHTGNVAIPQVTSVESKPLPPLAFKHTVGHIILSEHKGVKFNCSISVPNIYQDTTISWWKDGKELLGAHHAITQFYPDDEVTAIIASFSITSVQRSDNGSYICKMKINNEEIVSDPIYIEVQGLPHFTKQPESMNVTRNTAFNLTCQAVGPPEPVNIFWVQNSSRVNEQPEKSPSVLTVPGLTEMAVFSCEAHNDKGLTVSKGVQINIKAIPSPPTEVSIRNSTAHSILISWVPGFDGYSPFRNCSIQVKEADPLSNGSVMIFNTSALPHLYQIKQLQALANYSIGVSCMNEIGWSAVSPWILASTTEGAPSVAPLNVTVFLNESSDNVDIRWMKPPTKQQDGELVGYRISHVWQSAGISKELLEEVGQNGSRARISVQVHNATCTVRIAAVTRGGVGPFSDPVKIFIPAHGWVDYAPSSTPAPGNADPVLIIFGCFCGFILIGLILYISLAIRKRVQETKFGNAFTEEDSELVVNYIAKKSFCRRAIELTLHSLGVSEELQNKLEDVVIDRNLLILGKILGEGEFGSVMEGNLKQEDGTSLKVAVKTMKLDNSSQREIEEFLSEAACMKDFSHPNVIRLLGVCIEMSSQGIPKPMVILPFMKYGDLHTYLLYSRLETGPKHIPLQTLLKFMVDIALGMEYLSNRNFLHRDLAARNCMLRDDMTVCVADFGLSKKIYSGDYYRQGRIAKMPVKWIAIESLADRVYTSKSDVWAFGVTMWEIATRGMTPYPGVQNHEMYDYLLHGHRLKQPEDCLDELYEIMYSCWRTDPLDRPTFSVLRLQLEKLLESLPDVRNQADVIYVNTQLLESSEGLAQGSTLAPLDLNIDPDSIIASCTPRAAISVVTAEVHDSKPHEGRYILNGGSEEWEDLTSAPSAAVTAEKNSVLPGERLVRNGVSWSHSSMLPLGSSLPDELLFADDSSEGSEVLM

[12] = system: c-Abl (mouse); test: as above
[13] = system: c-Src; test: as above
[14] = molecular target: Grb2 SH2 (UniProt P62993); test: SH2 binding enrichment of the phosphorylated peptide, bacterial display (enrichment ratio); higher = better substrate or ligand; peptides without Tyr show the background
Grb2 SH2, sequence (P62993 whole entry, looked up): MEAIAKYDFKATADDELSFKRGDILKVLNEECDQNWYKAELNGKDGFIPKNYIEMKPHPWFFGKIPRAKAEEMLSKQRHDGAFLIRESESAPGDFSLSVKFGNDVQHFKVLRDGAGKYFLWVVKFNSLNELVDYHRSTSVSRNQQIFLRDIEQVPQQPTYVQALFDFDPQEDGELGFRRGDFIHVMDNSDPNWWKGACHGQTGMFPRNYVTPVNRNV

[15] = molecular target: SHP2-C SH2; test: as above
[16] = molecular target: c-Src SH2; test: as above
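Throughout, for SH2 binding enrichment of the phosphorylated peptide, bacterial display: peptide library displayed on the E. coli surface as eCPX fusions, selected cells deep-sequenced, score is each peptide's frequency after selection divided by its frequency in the input.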
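Throughout, for phosphorylation enrichment, bacterial display: 11-residue human phosphosite peptides and single-mutation variants displayed on the E. coli surface, counted by deep sequencing, each peptide's frequency after selection divided by its frequency in the unselected input library; frequency after pTyr selection over input frequency; kinase dosed for 20-30% of maximal phosphorylation in three min.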

FGFR1, sequence (P11362 whole entry, looked up): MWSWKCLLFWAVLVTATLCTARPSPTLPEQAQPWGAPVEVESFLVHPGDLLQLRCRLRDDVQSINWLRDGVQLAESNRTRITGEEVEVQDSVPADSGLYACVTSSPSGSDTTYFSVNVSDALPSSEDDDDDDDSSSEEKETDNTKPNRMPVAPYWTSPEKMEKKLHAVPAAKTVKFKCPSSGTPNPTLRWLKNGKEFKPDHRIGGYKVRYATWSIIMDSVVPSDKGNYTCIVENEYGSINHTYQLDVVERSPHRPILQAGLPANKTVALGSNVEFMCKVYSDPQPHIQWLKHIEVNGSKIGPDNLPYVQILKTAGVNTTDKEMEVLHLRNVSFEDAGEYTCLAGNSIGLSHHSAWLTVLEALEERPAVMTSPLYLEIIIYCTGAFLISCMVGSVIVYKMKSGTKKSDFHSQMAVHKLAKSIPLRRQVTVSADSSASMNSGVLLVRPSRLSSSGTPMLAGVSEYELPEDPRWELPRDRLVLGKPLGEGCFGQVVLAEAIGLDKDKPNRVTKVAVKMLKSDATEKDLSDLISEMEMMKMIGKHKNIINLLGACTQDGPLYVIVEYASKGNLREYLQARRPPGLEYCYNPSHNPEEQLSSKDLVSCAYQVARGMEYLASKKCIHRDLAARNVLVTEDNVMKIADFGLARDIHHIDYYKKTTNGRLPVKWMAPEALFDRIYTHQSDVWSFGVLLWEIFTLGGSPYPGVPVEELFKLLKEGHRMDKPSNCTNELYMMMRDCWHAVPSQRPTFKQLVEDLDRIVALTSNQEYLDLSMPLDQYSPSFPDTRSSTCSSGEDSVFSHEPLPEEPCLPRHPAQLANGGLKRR
EPHB2, sequence (P29323 whole entry, looked up): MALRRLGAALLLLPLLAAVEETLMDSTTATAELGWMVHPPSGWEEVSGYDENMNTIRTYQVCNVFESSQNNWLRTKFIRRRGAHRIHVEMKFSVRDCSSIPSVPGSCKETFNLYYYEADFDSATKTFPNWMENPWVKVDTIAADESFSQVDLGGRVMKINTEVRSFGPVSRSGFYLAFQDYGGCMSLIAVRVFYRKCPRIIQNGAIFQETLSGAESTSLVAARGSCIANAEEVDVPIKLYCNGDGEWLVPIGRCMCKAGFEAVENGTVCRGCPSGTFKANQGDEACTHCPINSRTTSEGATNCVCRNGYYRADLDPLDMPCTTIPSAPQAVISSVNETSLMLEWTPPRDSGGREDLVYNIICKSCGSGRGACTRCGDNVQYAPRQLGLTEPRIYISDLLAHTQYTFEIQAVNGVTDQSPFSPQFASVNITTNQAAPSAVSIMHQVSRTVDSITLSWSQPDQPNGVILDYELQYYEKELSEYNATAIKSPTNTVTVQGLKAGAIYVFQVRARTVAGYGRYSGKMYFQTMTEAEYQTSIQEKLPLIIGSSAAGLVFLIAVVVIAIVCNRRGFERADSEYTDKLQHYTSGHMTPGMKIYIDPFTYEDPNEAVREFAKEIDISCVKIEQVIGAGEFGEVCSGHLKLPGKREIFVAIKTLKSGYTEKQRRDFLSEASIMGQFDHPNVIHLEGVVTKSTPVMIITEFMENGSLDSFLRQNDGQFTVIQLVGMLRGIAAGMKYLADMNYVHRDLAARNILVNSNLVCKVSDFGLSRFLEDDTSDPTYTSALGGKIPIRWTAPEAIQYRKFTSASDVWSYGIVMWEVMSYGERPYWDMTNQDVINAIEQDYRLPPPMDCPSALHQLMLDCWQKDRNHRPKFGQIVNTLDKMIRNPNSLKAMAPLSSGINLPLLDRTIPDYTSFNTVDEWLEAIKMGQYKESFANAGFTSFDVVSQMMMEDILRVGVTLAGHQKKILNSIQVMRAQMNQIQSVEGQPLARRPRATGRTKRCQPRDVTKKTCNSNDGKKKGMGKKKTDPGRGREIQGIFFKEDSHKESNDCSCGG

Sequence	phosphorylation enrichment [1]	phosphorylation enrichment [2]	phosphorylation enrichment [3]	phosphorylation enrichment [4]	phosphorylation enrichment [5]	phosphorylation enrichment [6]	phosphorylation enrichment [7]	phosphorylation enrichment [8]	phosphorylation enrichment [9]	phosphorylation enrichment [10]	phosphorylation enrichment [11]	phosphorylation enrichment [12]	phosphorylation enrichment [13]	SH2 binding enrichment [14]	SH2 binding enrichment [15]	SH2 binding enrichment [16]
FGMQLYQKFMH [GRB14_Y347_N349K_YF]	0.863	1.39	0.8	0.454	0.784	1.92	1	1.56	2.16	0.94	2.11	0.773	2.26	1.23	1.02	1.08
FGSIMYEFVGK [SLC18A1_Y251_V249I]	1.12	1.73	1.04	0.658	0.652	9.41	0.983	1.09	5.05	0.703	6.29	0.508	1.44	0.867	0.731	0.676
FGSLLYKYAFK [FANCD2_Y458]	0.839	0.468	0.391	0.352	0.684	0.324	1.04	0.366	0.379	0.858	0.433	0.627	0.392	0.922	0.731	0.485
FHKALYTVRSF [PDE6C_Y266_YF]	0.708	0.612	0.489	0.462	0.549	0.394	0.942	0.43	0.557	0.674	0.378	0.666	0.389	0.784	0.648	0.459
FISVGYVDGTQ [HLA-B_Y51_D54G]	0.741	0.268	0.401	0.353	0.587	0.358	0.807	0.315	0.375	0.696	0.348	0.572	0.398	0.781	0.753	0.527
FLGRNYLETLM [DUS3L_Y610_D609N_YF]	0.679	0.515	0.412	0.448	0.567	0.433	0.701	0.454	0.33	0.63	0.322	0.522	0.292	1.02	1.09	0.605
FLNSIYQSRDE [ROS1_Y2227_K2228Q]	0.743	0.533	0.441	0.353	0.785	0.548	0.764	4.07	4.33	0.791	0.489	0.775	4.63	0.789	0.74	0.361
FLRTGYSIPFG [TGM1_Y370_V372I_YF]	0.844	0.538	0.471	0.486	0.769	0.409	0.934	0.473	0.423	0.863	0.753	0.775	0.44	1.06	1.62	5.52
FLTSSYINIST [IL23R_Y178_YF]	0.834	0.437	0.434	0.517	0.489	0.375	0.779	0.48	0.422	1.34	0.47	0.498	0.44	22.6	1.33	2.66
FMRGMYFRMKD [PLA2G6_Y541_YF]	1.16	0.518	0.542	0.442	0.657	0.399	1.12	0.455	0.428	1.14	0.419	0.645	0.417	0.897	1.17	0.767
FPAVGYHKPHI [IDS_Y225_L221P]	0.638	0.393	0.467	0.412	0.565	0.436	0.601	0.472	0.394	0.625	0.374	0.602	0.41	0.823	0.826	0.91
FPKARYRWLVL [APTX_Y214_H215R_YF]	0.715	0.448	0.371	0.533	0.534	0.352	0.72	0.386	0.407	0.717	0.494	0.534	0.436	0.909	0.568	0.575
FPPTHYIRRVP [SLC4A11_Y820_YF]	0.953	0.529	0.53	0.437	0.468	0.747	0.87	0.473	0.965	0.755	0.522	0.71	0.475	0.644	0.746	0.374
FQEPVYSVAFS [TBL1X_Y509_H504Y_YF]	4.02	18.1	24.6	3.68	3.49	16.6	3.7	11.8	10.2	0.925	11.7	27.4	7.54	0.812	0.926	0.469
FQLPFYNTVPS [BMPR1A_Y458_M460T_YF]	0.748	0.526	0.45	0.414	0.699	0.642	0.828	0.465	0.687	0.704	0.569	0.625	0.565	0.911	0.816	5.8
FQSKHYACIRQ [TIMP3_Y182_YF]	0.692	0.541	0.478	0.42	0.512	0.472	0.829	0.375	0.392	0.823	0.503	0.659	0.425	1.01	6.08	1.79

From the supplement of paper PMC10065799, “High-throughput profiling of sequence recognition by tyrosine kinases and SH2 domains using bacterial peptide display” (eLife, 2023)
